Results from patent publication US20130156692A1 (INDI MOLECULAR, published 2013).
Bridges are numbered along the chain shown (N, C = ends). Primed or numbered codes have the meaning given here. Where no end group is shown, it is not given here. [ ]: non-standard residue; d: D form. Tz4″ = 1,4-disubstituted 1,2,3-triazole linker between anchor and secondary ligand; Lys(N3) = [N-]=[N+]=NCCCC[C@H](N)C(=O)O

How the values were obtained:
[1] = biological target: T1, human VEGF165A (#ab56620; Abcam) (human, UniProt P15692-4 27-191, biotinylated (EZ-Link Sulfo-NHS-LC-Biotinylation kit) in the competitive ELISAs of Examples 8, 9 and 16; unlabelled in the direct ELISA and the pull-down); assay: direct ELISA, VEGF165 coated, biotinylated capture agent
T1 construct: Isoform VEGF165 of VEGF-A; also called rhVEGF165; biotinylated VEGF165
T1 sequence (P15692 other isoform, or with tags, fused parts or gaps limits assumed): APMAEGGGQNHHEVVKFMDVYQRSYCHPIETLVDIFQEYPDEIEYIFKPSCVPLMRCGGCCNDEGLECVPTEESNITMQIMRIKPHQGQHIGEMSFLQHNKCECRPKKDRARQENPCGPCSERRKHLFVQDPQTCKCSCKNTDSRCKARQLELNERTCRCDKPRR

[2] = biological target: T1, human VEGF165A (#ab56620; Abcam); assay: direct ELISA: VEGF165 coated on the plate, biotinylated binder titrated, streptavidin poly-HRP, fluorescence normalised to saturation
[3] = biological target: T1, human VEGF165A (#ab56620; Abcam); assay: direct ELISA: VEGF165A immobilized on NUNC MaxiSorp plate, biotinylated PCC or bevacizumab (mAb or Fab) titrated, normalized to binding at saturation
[4] = biological target: T1, human VEGF165A (#ab56620; Abcam); assay: competitive ELISA, inhibition of biotinylated VEGF165 binding to VEGFR2-Fc; competition ELISA: blocking of biotinylated VEGF165 binding to VEGFR2-Fc; Biligand 2 tested up to 50 µM
[5] = biological target: T1, human VEGF165A (#ab56620; Abcam); assay: direct ELISA: VEGF165A immobilized on NUNC MaxiSorp plate, biotinylated peptide titrated, normalized to binding at saturation
[6] = biological target: T1, human VEGF165A (#ab56620; Abcam); assay: competitive ELISA, inhibition of biotinylated VEGF165 binding to VEGFR2-Fc; competition ELISA: blocking of biotinylated VEGF165 binding to VEGFR2-Fc; anchor tested up to 50 µM

| Binder | fold improvement in affinity relative to the anchor ligand [1] [fold] | EC50 (read off the curve) [2] [nM] | EC50 (read off the curve) [3] [nM] | IC50 [4] [nM] | EC50 (read off the curve) [5] [nM] | IC50 [6] [nM] |
| --- | --- | --- | --- | --- | --- | --- |
| VEPNCDIHVMWEWECFERL[Tz4″][dL][dF][dR][dE][dW] (designed binder, disulfide 5-15; numbers in words are those of the source; also: N-terminal group is biotin-PEG3 or acetyl, not fixed) [Biligand 2 (X-…-Tz4-Ifrew)] | 5 | 50 | 40 | > 50000 |  |  |
| VEPNCDIHVMWEWECFERL[Lys(N3)] (disulfide 5-15; also: N-terminal X is biotin-PEG3 or acetyl, not settled, Phage display-derived peptide; also called Biotin-PEG-anchor ligand-Az4) [anchor ligand X-VEPNCDIHVMWEWECFERL-Az4] |  | ~100 | ~100 |  | ~300 | > 50000 |
